Values quoted from earlier work as cited in paper PMC6191488.

Biological target: IgE Fc (Homo sapiens) (UniProt P01854)
Chain of UniProt P01854 (P01854 104-427): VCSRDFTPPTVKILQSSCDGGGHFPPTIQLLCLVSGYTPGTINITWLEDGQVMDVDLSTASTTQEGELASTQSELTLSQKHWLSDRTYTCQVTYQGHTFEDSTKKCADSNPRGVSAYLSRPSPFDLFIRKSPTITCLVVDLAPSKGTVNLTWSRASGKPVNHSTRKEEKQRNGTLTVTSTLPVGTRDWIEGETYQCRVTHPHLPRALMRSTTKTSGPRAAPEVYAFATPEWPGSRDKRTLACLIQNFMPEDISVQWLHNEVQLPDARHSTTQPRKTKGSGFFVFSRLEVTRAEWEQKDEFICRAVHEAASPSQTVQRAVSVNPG

Which Kd does the source give for “FcεRI alpha chain ECD (from UniProt P12319)” here?
Its Kd is 0.37 nM.
